# Test: protease stability score; higher = more stable; yeast display proteolysis, trypsin and chymotrypsin;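 note: relative to predicted unfolded state with 0 unfolded-like and 1 meaning tenfold more protease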
row,Sequence,protease stability score
1,DEDRKHMEQAITLLKRLWETGNEEDILKNLDPNVRFEVGEWVDHGRRSIEIFRERFKNLRVHDTRHKDRDVVDGRAHLHGEYNGEINGRLINTHVILVIEKVNGRWYFESIHIH,1.19
2,DDEEKEVKILTEIWWKSVRTGDEEFWDRLADPHTRLEILINGRTHEFHGMDEYNRILHHLRIEDRRTRSINNIDGKAQIDGFLVFRINGRSFETKVEVNISVVNGKVKHHKIIIE,1.3
3,DEWREHMEKLADDFSHAMLTGNEESMDKFLDPHTRSIVNGVERHGREAFRIWINQIDHIRDVEFRHVDTQGNKIRSHTRFHGEVNGRRYIVEIEVILHVIDGRVKSVEIRNL,1.38
4,DNTEENTRTLLELLKRVWRTGDWSQLDKLLDPNARAEINGVELHGREKVVEVFREELERLGVEYTDSRVKDMKVQGDKAIIDLELETEQGDKTHMHDLHIETRKVDGRWFVEHIIVH,1.75
5,DEEEEFLRLILETLRHAAETGDWHILNRLLDPDARIVIGDKEIHGREKVQHEFRRIDHYQWHHIILDRVHIYDGRIELHGQVEEELNVDGQRIRRLTDTHFVIVKVDGQWKIHTIEIR,2.22
6,SEHSHFLVELALIFWKALVTGDEERLDRLIDPNTRLEIGDKEEIGRENIIRKLDHIRIKTEEITVRDYRTQGDKFHMIGHVDLHFDFNGVRHRFTTEVRVDLTTVDGKIHSHHIKYR,0.145
7,DEEEESYRIAEHLFREVMETGDERISEHLADPRTRFQVGDKTFHGMDEWREVLHRMLVEIRMHDVKVHDVKSIGDKLIIDGYLYIEINGRRTSIYTELYWLKVNGQWRLHYITMH,1.12
8,DEDTRDTEIAFELLLRHMYTGDWHLVERMLDPNVRVHQGDFHTVGWEDFVRISLEARLHDMRIHQVRSQGDFVEIDGHVDFEINGKRIRVRTILIVLKVNGRWFLKSIEIR,1.23
9,SMEEMSELYIKWWMTGDWDKLTNNADPHTRVNVGNFESVGMEHLIELMLRHVKHFGINHSILRSHDTQGDKVHVDGELHVNGRTARIVLHLEIVNGRIKSESVESRSEVFEEHLHKVLR,0.635
10,DENRQDLEHFHKVLLKLLETGDENMIARLADPNVREDVNGVDNHGMKDLERTLREIHERVDHIHHVHIHRVDVINGRAHLDGTLRGHVNGVSFQHRETVIYLKFNGRWVLHSVHLK,1.2
11,DENEETMRHYFELLVRNLRTGDWHSLTRLMDPHVRLEYNGREFHGMEEVIRFLLHIRLRHLHLERVEIQGDKVRMHVSVDGEVNGRREEWDVELIARKIDGRWIQTSEIYR,0.212
12,DEERKFWEEVMRLMREAFETGDEHLIERMADPHVRINIIVDGREIEFHGWEILVDLMKFVKGMQFTLKDSDIINGVLKIDGKTRQGDKITDVEIEFHVVNGRVKEIHVHIL,2.48
13,DEEQRVEEEMAEMQRLWHETGDEESIQKNLDPRTRIVIHINGKEIRLHGREAWLKEVRRLGVKYLRIEDMEVVDGRVHARIHYTVNGVKIRIRVEFYIVDGRMEEIRRHWE,0.432
14,SEEEKKDHRQWERTFKAFLTGDEDTVHNLADPHVKTEVGDKEYHGRENFSKLISDLGVDHLNLKEIDTVNGRIHLLSEVRFNGQITKFIIIILKVNGQWHVESMEFH,0.441
15,SEDERQAEEASEQFLRSVETGDFDELSRLFDPDMKVVFNGKELHGRETYIRLERERRRDLGIKHVKVRVKDFRIINGRLHLHTELEFNVGDKSFTHESRYTWEKVNGRWVIRSVDID,2.15
16,DEDHKSAEDMLRLLLETVITGDETLLEKLADPHVRLRVGDKKFIGMEELLRLLDEEKKRLGYTRVDLVLHHREVQGDKLHLETELRVNGRTYQTHWIALKINGRWIIHEVSIR,2.25
17,DHDDHMREHLIELFIRWTTTGDFDELLRLVDPNARFDVNGREIHGWDVFMKMYEDTRHLLGADHAEVRNKDERFQGDKVTITIEVTIEVGDKEHREERELYVRKVDGKWTMKSLKIR,0.703
18,DERERELKQALDLFKDIIKTGDEEALTRLIDPNAKMRVNGQDIHGWHHFILMMIRIYLHMGIKHIIDHRLHIQGDYLHLDTEVHVDGRSIRYHIVLFKFDGRWHLESSSSI,1.6
19,DEHEEDMERFLRELLDHWRTGDEDVIRELMDPHVKVDINGKIHHGREEAVHFLIEMRFRHFHVHDLRVQGEKADVDGRTHMEYNGRTVDQRITIHLVKIDGKWREKSITLE,1.24
20,DENERRYNELSRLLFEWFLTGDEKMLSNFMDPNAKAEVNGKEEHGREELIRIYHDWLRKAGVDHIQPRHLETRHFDGRVHVHINVDVLINGKILHIHIDIDMVKIDGKWIIKHIRIHER,1.2
21,SEEEDKARHLFDRLVHAWHTGDWRELKHLLDPNAKFVLEYGDKKETYHGMDEEIRYLEELHKRVDHIHFLIRHVDIQGDKLRVEGELEYRVGDYERRIPTSYEVIVIDGRIHEIISRIH,2.11
22,EEEREIHQRHWEERLRAHRTGDEETLERQADPDVRIDFNGVELHGREVAVRFLLEMRLHDVDWRRIHTFDGRVDVDVIVDGEYNGRRYRSTFTLVIIKVNGQWLVHSMEFK,0.244
23,DEEHEIVELIMRIFLHAVLTGDWELIEKLADPNVRIIIRINGQEIHFHGREHLRHRFEHLRIDRMEIHDYKNVGDWLDIDGRENGNFNGRKHETRVHIHIRVINGKLHELRVTYR,1.68
24,DEEDEDIHRLFHELVEALLTGDERTLLRLIDPHARLIIGDKHFHGRELIVKIIYEMLRELRVHSINMHHIDVIGEKVVLDVHIHVEQGDKHRIIRVNIISKKIDGRWLIKSIKVH,1.16
25,SEEEEYARHFMTLVMSNLHTGNFEESRQNADPRTRVVIGDKRLHGWDEFAREYHEELRDRGVEIHFRVHHIEEFDGRLLTDFSIEIRYGDKVDHIRIRLYVTKINGRWFIKELEFR,1.1

row,Sequence,protease stability score
1,SHEKELNERAFRILIEELMTGDEDSWRKLADPNTRHIIDGQTYHGMDFFHEHVRKMGMTIHHVELEDYRFQGEKAVLILHIDGRQGEKHDKIRITIFIEKVDGRWILREVRIG,1.17
2,DEKEEHSKELVRLILRLILTGDEEILEDLMDPNVRANIDGREVHGWHEFVRILEKFLKEWRIHTTSLKRIRIIGDKAEVDLHEVGIVNGKKLEQDFHIHIEFVNGRLKEVHIEIR,1.69
3,DEHDKLMKDIAKLLLELWKTGDEEIFQHLMDPDTRMDVNGVQLHGMELIVKILRDEIHKIKNVKVLDKRNTVIGDKIHLDVEIVIGDKRIRMKLDVIVVNGRIKVFEIHTE,1.36
4,DEEEKILLHLLNVILHLLKTGDEEMMTELMDPNMKIDNENHKSHGWEALKFVRDQIRIHSINIREQRVQGEFAILRVDVDVEWNGRRIRTEIELHFVFVNGRVKEVHIQVK,1.02
5,TEEEEAKHLAQRIIEEDLRTGDWSRELRQIDPDVKTRVGDKTFHGMSALHYLLKQIDHPKSFTTHHIEVQGDKIKIDGELEGNINGVRTKIHTIFIVRKVNGRWLVETIIFE,1.53
6,DEEEETIRRDAKLTLDLIRTGDEEHLKKMLDPHVRLQIVIGDKTIENHGREEVIRRLRHEWKRFKNMRILIEDKRVVGNWVHFFGTILYNGVEHEAVLDLVLIDGVLHSIRINVI,1.6
7,DEQKNWAKIMLELLEHAWRTGDEHTLQELADPNTRLNIGDKDIIGWDLILTVLIEIRMSFSYRLEEVHTFENHVVLRTRLIRVLHFDGKSTEFVKETELYIEKVDGRWILRHIVIK,1.29
8,DEVERHLKEIFKDLERALNTGDEDRFEHLMDPHARYDVNGVEFIGMRWFRKLVKEIRIRHVDMRLEDVRHVGDFVKMITRIHIEVDINGKNDERETRTILIMHKIDGRWEIKEVIFL,1.38
9,DERTKSYELALRIIEHVNKTGDEEMSTHMADPNARVVQGEKEIHGRELFIRWMKEIRVEDIKHRDKTIIGDKLILRVDIHGIIDGRHEDFHVILIVTKVNGRWHLEEVRIH,1.36
10,DEDDQWSEMLAKKYLDRVLTGDEKRMKSLLDPNVRLSVNGVDMHGREVFVHWLRTVLNRVDHQELRLRHLHSQGDKAHVDTEVIENWDGVKIVKETELEFIFVNGRFHSVFHRER,0.267
11,DEDTELVYRIIKRLKEYIKTGDEDSIKELLDPNARIEVGDKEIHGRDRFAHMLVEIWSKDHKVELKDSRTFPNHLEYDGVLREDIEIDGKRIHRTRKLIVLVRKVNGRWYVEEIIFH,2.19
12,SEDIELVHNIMEHMAKAFTTGDERHLLNLFDPNVRFMINGQNYVGWEHLINWIEHIRIKRVDLRINDVKLIGDKLHIHGRFIVRGQIDGREIDRVEDTRINFQKINGRWIIEELHFV,2.61
13,SEEEELQRQLIEEFIRNRLTGDEDRLLELMDPNVRVRVGEKHAHGREEAIKLWHDHLHHWRIRHLTLRDYRVIDGKIHLHGEIHGEYNGKEHHTRTTIIIVHIDGRLRSIRIEID,2.12
14,DEEERRLHEIAELVVHRLVTGDEDTLNKLFDPNTRFELIFNGQNFELHGREALMEWLQRRRNVREKHEVRRIEYQGDKLHVDGTLIIEYGDKRRESEVDLRIRVVNGRVHTIDLRLK,1.48
15,DEEDEALERSRQLLIKILRTGDFEDLDRMLDPHVRIIIGDKEFHGREEAIKWVRERMKRMGAKVVEHFNEDDWRLQGDKIELDGEYNVRQGDKQYHLRVHIISLKVDGKWYFHSLEIK,0.232
16,DEEHEEYHRMFRVVEHAYRTGDWKTLSDYMDPNAKQTVGNKEYHGREQVDESLKRLGIKVTDVEDSKEDHINGRLVVRLDQHLEVNGRRIKIHVLIIIIKINGRWIITENMYIFH,0.141
17,DETEKHILKLAEMLVRDWITGNEENIMELLDPHAKIDIHIDGRYLEFHGRELITRELIRHYEEIRIHYHFRESESVGEKASINMDVEVHIGDKIVRSHTEVILDIVNGRVRNIHIRWK,2.23
18,DTEKYLYDFALRLHIHAHETGNFDQLIKNLDPHYRIDINGQIFHGREWVEREYKRAGIDKFELQHFEVKHEHVQGDFLIMDGKLEGNFNGVRINTRVEIYHEKFDGQWKIREVHHR,0.185
19,SELNEKLKHLIELHWRVLETGDEHMMTRLLDPHARLEYGDKELHGREEVTHWHYEILEKVKNLQIHLSDYRIVNGQIHLHVVENVNGVTTRRFINIEKIDGRWHDREIRIE,0.757
20,DNEEKDNKTATKLLLDWLRTGDEESMSRNADPNTRLEIGDKEFHGREEVLRHLHELKRHFGIERFEVDIERVEIYGDKVVIHSRMNVNGQRREVIFIDRKIDGRWIFKSIELR,1.13
21,DEHEENVRKDIKEHEETEKTGDEKAYLEMADPHVKVDIDGVDLHGMERVTNFYRELLHKFPNIRIHTRHVDVQGEKVHVETELEWNGVKLETELVWVKINGRWLTHEIHIR,1.2
22,LEEEEIARELLKRILDMLFTGDEEVLSELLDPNVRVDFNGVEIHGREHVREWMHHLRFRHLHLRDFRVQGDKLHLDTETRGEIDGQEVRIETRLIARKVDGRWILKSREFV,1.53
23,SEDEKVVKWASDVLLDYIRTGDWRSLEELIDPHARHDVNGVEIIGMEHILKHFMELRRRIDHIHLRVHHIRVFDGQIDLNGKLHVNINGREIELDTRVIALKVNGRWVNHIISIG,1.44
24,SEDEIARHILHKMMTGDEDSFEELLDPNARLIVGNKHSHGRERVIEDWKRDLELAGFKHSEVKRIHFQGEKSHVHGHINVNGKEYRVLFILVIVNGRLKEVELHVTDEREEKYLHRTWE,0.007
25,DEERELLKFFLKAWSKALVTGDEQTLLDLVDPNARNVIGDKDLIGREFLEKVLREMRITEVHIEDIKFQGEFVTSDLRMRVRQGDKEFDIRVRLVVYKYDGRWVFKTFHME,2.23

# — the NTF2 design screens of Basanta et al. (2020)
